Test results published in the supplement of paper PMC12338614.
± gives the uncertainty stated by the source.

B1: library; numbered along this chain (parent)
chain: MEVVDPQQLGMFTEGELMSVGMDTFIHRIDSTEVIYQPRRKRAKLIGKYLMGDLLGEGSYGKVKEVLDSETLCRRAVKILKKKKLRRIPNGEANVKKEIQLLRRLRHKNVIQLVDVLYNEEKQKMYMVMEYCVCGMQEMLDSVPEKRFPVCQAHGYFCQLIDGLEYLHSQGIVHKDIKPGNLLLTTGGTLKISDLGVAEALHPFAADDTCRTSQGSPAFQPPEIANGLDTFSGFKVDIWSAGVTLYNITTGLYPFEGDNIYKLFENIGKGSYAIPGDCGPPLSDLLKGMLEYEPAKRFSIRQIRQHSWFRKKHPPAEAPVPIPPSPDTKDRWRSMTVVPYLEDLHGADEDEDLFDIEDDIIYTQDFTVPGQVPEEEASHNGQRRGLPKAVCMNGTEAAQLSTKSRAEGRAPNPARKACSASSKIRRLSACKQQ

Variants of: B1
Assay: STK11 functional score (HeLa growth suppression), rescaled enrichment; synonymous median = 1, nonsense median = 0 (normalised score)
Details: with HeLa; variant type: missense
Summary of the method: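 In HeLa, Bxb1 integrated POPCode codon-randomised libraries of codon-optimised STK11 at an AAVS1 landing pad; three regions were each transfected three times. Integrants, marked as BFP-negative and mCherry-positive, were FACS-sorted 4–5 days after electroporation and expanded for about two weeks before tiled gDNA amplicons were sequenced on NextSeq (~2 million reads per tile). Each functional score is a post/pre-selection log ratio corrected to wild type, rescaled to the synonymous and nonsense medians, and merged across codons and replicate transfections, with error estimated by bootstrapping.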

Row | Variant | STK11 functional score
1 | E14V | 1.03 ± 0.29
2 | L263M | 0.891 ± 0.17
3 | V320W | 0.717 ± 0.091
4 | V95Y | 1.55 ± 0.17
5 | V95R | 1.02 ± 0.16
6 | L167H | -0.00514 ± 0.083
7 | G61Y | 0.11 ± 0.086
8 | G61C | 1.13 ± 0.097
9 | A318C | 1.23 ± 0.49
10 | V243T | 1.29 ± 0.26
11 | R415S | 1.5 ± 0.27
12 | R415K | 1.17 ± 0.5
13 | F25C | 1.63 ± 0.46
14 | I274R | 0.816 ± 0.21
15 | A417N | 1.55 ± 0.18
16 | Q214V | 0.919 ± 0.23
17 | A43Y | 1.67 ± 0.16
18 | C134V | 0.604 ± 0.11
19 | E396A | 1.29 ± 0.47
20 | N119H | 1.3 ± 0.22
21 | N247E | 1.33 ± 0.12
22 | E293S | 1.08 ± 0.25
23 | I361E | 1.52 ± 0.26
24 | I361A | 1.47 ± 0.26

Row | Variant | STK11 functional score
25 | I361G | 0.895 ± 0.29
26 | G180S | 1.14 ± 0.18
27 | A218V | 1.07 ± 0.19
28 | A153G | 1.13 ± 0.13
29 | R304L | 1.06 ± 0.17
30 | P387D | 1.56 ± 0.24
31 | P411L | 1.16 ± 0.27
32 | A225G | 1.05 ± 0.26
33 | L344S | 1.43 ± 0.18
34 | V34L | 1.13 ± 0.19
35 | M139L | 1.2 ± 0.11
36 | M139C | 1.29 ± 0.23
37 | M139S | 0.816 ± 0.1
38 | G370S | 1.52 ± 0.23
39 | M129F | 0.993 ± 0.47
40 | F366C | 1.09 ± 0.4
41 | K431S | 1.64 ± 0.14
42 | K175P | -0.179 ± 0.081
43 | V338T | 1.6 ± 0.14
44 | R409M | 1.15 ± 0.63
45 | C278F | 0.811 ± 0.14
46 | C278P | 1.22 ± 0.19
47 | P89M | 1.55 ± 0.16
48 | L201G | 0.745 ± 0.38

Row | Variant | STK11 functional score
49 | V20S | 1.46 ± 0.22
50 | A316S | 0.768 ± 0.23
51 | A316G | 1.25 ± 0.19
52 | P149W | 0.608 ± 0.17
53 | I88G | 0.665 ± 0.23
54 | L17D | 1.7 ± 0.12
55 | L17H | 1.53 ± 0.16
56 | A347S | 1.42 ± 0.18
57 | A347P | 1.21 ± 0.28
58 | A347G | 1.12 ± 0.28
59 | T71F | 1.17 ± 0.47
60 | T71Q | 1.58 ± 0.14
61 | T71G | 1.48 ± 0.19
62 | T71N | 0.961 ± 0.15
63 | I29F | 0.117 ± 0.076
64 | I29R | 1.14 ± 0.18
65 | W332G | 1.55 ± 0.14
66 | K423C | 1.58 ± 0.16
67 | C158A | 1.37 ± 0.59
68 | P280R | 1.14 ± 0.17
69 | P280A | 0.896 ± 0.17
70 | P280G | 1.46 ± 0.23
71 | A397M | 1.62 ± 0.2
72 | G163P | -0.013 ± 0.11

Row | Variant | STK11 functional score
73 | G163W | 0.91 ± 0.22
74 | C151N | 0.808 ± 0.43
75 | P254L | 0.528 ± 0.12
76 | E120A | 0.817 ± 0.13
77 | E120G | 1.26 ± 0.23
78 | E120V | 1.09 ± 0.086
79 | E120C | 0.373 ± 0.24
80 | M11C | 1.69 ± 0.36
81 | M11S | 1.33 ± 0.41
82 | K312E | 0.874 ± 0.5
83 | K312F | 0.982 ± 0.26
84 | A410H | 1.23 ± 0.54
85 | D330L | 1.59 ± 0.16
86 | P222F | 0.44 ± 0.099
87 | D284I | 1.14 ± 0.43
88 | D284F | 0.579 ± 0.099
89 | D284M | 1.19 ± 0.42
90 | G394Y | 1.38 ± 0.13
91 | G394H | 1.6 ± 0.29
92 | K82T | 1.56 ± 0.17
93 | E375C | 1.31 ± 0.31
94 | G58A | 0.935 ± 0.29
95 | G58F | 0.0123 ± 0.09
96 | E2K | 1.16 ± 0.78

Row | Variant | STK11 functional score
97 | H345T | 1.57 ± 0.17
98 | K96H | 1.33 ± 0.072
99 | E291M | 1.66 ± 0.17
100 | K83A | 1.58 ± 0.36
101 | T328D | 1.5 ± 0.26
102 | T328N | 0.554 ± 0.47
103 | T328A | 1.62 ± 0.16
104 | T328E | 1.5 ± 0.17
105 | D258V | 1.39 ± 0.37
106 | D258M | 0.663 ± 0.18
107 | K146N | 1.16 ± 0.26
108 | R104Q | 1.21 ± 0.56
109 | K108D | 0.31 ± 0.081
110 | V128C | 1.15 ± 0.1
111 | V128Y | 1.41 ± 0.23
112 | G270R | 1.43 ± 0.39
113 | G270N | 1.4 ± 0.35
114 | D176G | -0.169 ± 0.064
115 | D176P | 0.0199 ± 0.077
116 | E57S | 1.17 ± 0.35
117 | E57D | 0.893 ± 0.15
118 | D162W | 1.6 ± 0.22
119 | E342T | 1.58 ± 0.15
120 | M18C | 0.902 ± 0.4

Row | Variant | STK11 functional score
121 | F354L | 1.12 ± 0.22
122 | Y118Q | 1.52 ± 0.14
123 | Y118K | 0.568 ± 0.17
124 | Y118F | 0.519 ± 0.077
125 | S59Q | 1.63 ± 0.19
126 | N412G | 1.63 ± 0.15
127 | G242F | 0.0262 ± 0.098
128 | P314N | 1.53 ± 0.13
129 | P314D | 1.5 ± 0.17
130 | P314V | 1.16 ± 0.37
131 | V197S | 1.58 ± 0.4
132 | P294A | 1.39 ± 0.21
133 | I322E | 1.11 ± 0.19
134 | I322F | 1.25 ± 0.22
135 | I322W | 1.18 ± 0.088
136 | R297V | -0.053 ± 0.093
137 | S378I | 1.26 ± 0.39
138 | E130M | 0.0424 ± 0.11
139 | D352L | 1.62 ± 0.15
140 | D352H | 1.27 ± 0.41
141 | E121K | 0.738 ± 0.69
142 | Q7I | 1.61 ± 0.17
143 | V116A | 0.197 ± 0.13
144 | L117H | 1.05 ± 0.37

Row | Variant | STK11 functional score
145 | P38M | 1.09 ± 0.92
146 | A429G | 1.12 ± 0.33
147 | I99F | 1.64 ± 0.16
148 | I99P | 0.0871 ± 0.35
149 | A205H | 1.33 ± 0.13
150 | K44W | 1.3 ± 0.074
151 | K44L | 1.36 ± 0.2
152 | K44C | 1.12 ± 0.2
153 | S232N | 1.28 ± 0.44
154 | G288F | 0.357 ± 0.18
155 | P339W | 1.6 ± 0.17
156 | E357M | 1.52 ± 0.29
157 | E357G | 1.47 ± 0.23
158 | V77I | 1.4 ± 0.13
159 | R211D | 1.68 ± 0.17
160 | K191T | 1.16 ± 0.12
161 | Y60C | 0.482 ± 0.081
162 | Y272P | 1.38 ± 0.45
163 | F298S | 0.975 ± 0.27
164 | Q100I | 1.64 ± 0.19
165 | T395H | 1.53 ± 0.25
166 | L140N | 0.0882 ± 0.09
167 | Q123T | 1.27 ± 0.65
